Measurements: US20140087995A1 (published 2014)
Numbered stars: 1 amine (or outer) side, 2 acyl side, 3 side chain; on linkers, the order of the positions; unused ones are H or OH. Bridge positions count the residues as written; N and C are the ends. Square brackets hold non-standard residues; d marks the D form. Side chains are listed from the residue outwards. Ends that are not written are not given here. * marks the point of attachment. C20 diacid = O=C(O)CCCCCCCCCCCCCCCCCCC(=O)*; γGlu = O=C(O)[C@H](CCC(=O)[*:2])N[*:1]; C14 diacid = O=C(O)CCCCCCCCCCCCC(=O)*

T1: human calcitonin receptor (human, UniProt P30988 25-474)
T1 construct: whole, on cells; Membranes in a scintillation proximity assay (Assay VII); also called hCTR; hCT
T1 sequence (looked up): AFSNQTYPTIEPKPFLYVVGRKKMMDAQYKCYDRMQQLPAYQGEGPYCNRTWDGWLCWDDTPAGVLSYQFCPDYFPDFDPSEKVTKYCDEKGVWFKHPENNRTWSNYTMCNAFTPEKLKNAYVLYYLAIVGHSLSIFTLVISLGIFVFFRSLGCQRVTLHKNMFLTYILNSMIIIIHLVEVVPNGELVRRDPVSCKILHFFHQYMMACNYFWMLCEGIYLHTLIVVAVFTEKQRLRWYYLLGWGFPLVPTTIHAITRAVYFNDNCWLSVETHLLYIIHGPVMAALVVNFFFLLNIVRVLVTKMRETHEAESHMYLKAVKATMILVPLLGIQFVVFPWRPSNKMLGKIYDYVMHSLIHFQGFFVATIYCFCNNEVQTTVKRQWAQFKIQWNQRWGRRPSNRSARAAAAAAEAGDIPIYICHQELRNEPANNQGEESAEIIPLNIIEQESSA

T2: human calcitonin receptor (human, UniProt P30988 25-474)
T2 construct: whole, on cells; Used as cell membranes; also called hCTR; hCT
T2 sequence (looked up): T1 sequence (looked up)

T3: human amylin receptor (amylin 3(a) receptor: human calcitonin receptor with RAMP-3) (human, UniProt P30988 25-474; O60896 24-148)
T3 construct: whole, on cells; Used as cell membranes of the Amylin 3(a)/CRE-luc BHK cells; the species of RAMP-3 is only implied by the name human amylin receptor; also called hAmylin-R; hAmylinR
T3 sequence (looked up) 1: T1 sequence (looked up)
T3 sequence (looked up) 2: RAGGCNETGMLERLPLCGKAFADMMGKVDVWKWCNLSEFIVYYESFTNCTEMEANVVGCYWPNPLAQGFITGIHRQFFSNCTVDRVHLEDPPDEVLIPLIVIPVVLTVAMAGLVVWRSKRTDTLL

B1: N^ε1-[(4S)-4-carboxy-4-(13-carboxytridecanoylamino)butanoyl]-[Arg17,Pro21,Pro27,His34]-h-amylin (peptide)
peptide: K([γGlu-C14 diacid])CNTATCATQRLANFLRHSSPNFGAIPSSTNVGHNTY-NH2
modifications: disulfide 2-7; N-terminus assumed
SMILES: CC[C@H](C)[C@H](NC(=O)[C@H](C)NC(=O)CNC(=O)[C@H](Cc1ccccc1)NC(=O)[C@H](CC(N)=O)NC(=O)[C@@H]1CCCN1C(=O)[C@H](CO)NC(=O)[C@H](CO)NC(=O)[C@H](Cc1c[nH]cn1)NC(=O)[C@H](CCCNC(=N)N)NC(=O)[C@H](CC(C)C)NC(=O)[C@H](Cc1ccccc1)NC(=O)[C@H](CC(N)=O)NC(=O)[C@H](C)NC(=O)[C@H](CC(C)C)NC(=O)[C@H](CCCNC(=N)N)NC(=O)[C@H](CCC(N)=O)NC(=O)[C@@H](NC(=O)[C@H](C)NC(=O)[C@@H]1CSSC[C@H](NC(=O)[C@@H](N)CCCCNC(=O)CC[C@H](NC(=O)CCCCCCCCCCCCC(=O)O)C(=O)O)C(=O)N[C@@H](CC(N)=O)C(=O)N[C@@H]([C@@H](C)O)C(=O)N[C@@H](C)C(=O)N[C@@H]([C@@H](C)O)C(=O)N1)[C@@H](C)O)C(=O)N1CCC[C@H]1C(=O)N[C@@H](CO)C(=O)N[C@@H](CO)C(=O)N[C@H](C(=O)N[C@@H](CC(N)=O)C(=O)N[C@H](C(=O)NCC(=O)N[C@@H](Cc1c[nH]cn1)C(=O)N[C@@H](CC(N)=O)C(=O)N[C@H](C(=O)N[C@@H](Cc1ccc(O)cc1)C(N)=O)[C@@H](C)O)C(C)C)[C@@H](C)O
B2: N^-1-[(4S)-4-carboxy-4-(19-carboxynonadecanoylamino)butanoyl]-Gly[Arg1,His14,Arg17,Pro21,Pro27,His34]-h-amylin (peptide)
peptide: {C20 diacid-γGlu}-GRCNTATCATQRLAHFLRHSSPNFGAIPSSTNVGHNTY-NH2
modifications: disulfide 3-8
SMILES: CC[C@H](C)[C@H](NC(=O)[C@H](C)NC(=O)CNC(=O)[C@H](Cc1ccccc1)NC(=O)[C@H](CC(N)=O)NC(=O)[C@@H]1CCCN1C(=O)[C@H](CO)NC(=O)[C@H](CO)NC(=O)[C@H](Cc1c[nH]cn1)NC(=O)[C@H](CCCNC(=N)N)NC(=O)[C@H](CC(C)C)NC(=O)[C@H](Cc1ccccc1)NC(=O)[C@H](Cc1c[nH]cn1)NC(=O)[C@H](C)NC(=O)[C@H](CC(C)C)NC(=O)[C@H](CCCNC(=N)N)NC(=O)[C@H](CCC(N)=O)NC(=O)[C@@H](NC(=O)[C@H](C)NC(=O)[C@@H]1CSSC[C@H](NC(=O)[C@H](CCCNC(=N)N)NC(=O)CNC(=O)CC[C@H](NC(=O)CCCCCCCCCCCCCCCCCCC(=O)O)C(=O)O)C(=O)N[C@@H](CC(N)=O)C(=O)N[C@@H]([C@@H](C)O)C(=O)N[C@@H](C)C(=O)N[C@@H]([C@@H](C)O)C(=O)N1)[C@@H](C)O)C(=O)N1CCC[C@H]1C(=O)N[C@@H](CO)C(=O)N[C@@H](CO)C(=O)N[C@H](C(=O)N[C@@H](CC(N)=O)C(=O)N[C@H](C(=O)NCC(=O)N[C@@H](Cc1c[nH]cn1)C(=O)N[C@@H](CC(N)=O)C(=O)N[C@H](C(=O)N[C@@H](Cc1ccc(O)cc1)C(N)=O)[C@@H](C)O)C(C)C)[C@@H](C)O
notes: 38 residues; also called compound 100
B3: N^ε1-[(4S)-4-carboxy-4-[[(4S)-4-carboxy-4-(19-carboxynonadecanoylamino)butanoyl]amino]butanoyl]-[Arg17,Pro21,Pro27,His34]-h-amylin (peptide)
peptide: K([γGlu-γGlu-C20 diacid])CNTATCATQRLANFLRHSSPNFGAIPSSTNVGHNTY-NH2
modifications: disulfide 2-7; N-terminus assumed
SMILES: CC[C@H](C)[C@H](NC(=O)[C@H](C)NC(=O)CNC(=O)[C@H](Cc1ccccc1)NC(=O)[C@H](CC(N)=O)NC(=O)[C@@H]1CCCN1C(=O)[C@H](CO)NC(=O)[C@H](CO)NC(=O)[C@H](Cc1c[nH]cn1)NC(=O)[C@H](CCCNC(=N)N)NC(=O)[C@H](CC(C)C)NC(=O)[C@H](Cc1ccccc1)NC(=O)[C@H](CC(N)=O)NC(=O)[C@H](C)NC(=O)[C@H](CC(C)C)NC(=O)[C@H](CCCNC(=N)N)NC(=O)[C@H](CCC(N)=O)NC(=O)[C@@H](NC(=O)[C@H](C)NC(=O)[C@@H]1CSSC[C@H](NC(=O)[C@@H](N)CCCCNC(=O)CC[C@H](NC(=O)CC[C@H](NC(=O)CCCCCCCCCCCCCCCCCCC(=O)O)C(=O)O)C(=O)O)C(=O)N[C@@H](CC(N)=O)C(=O)N[C@@H]([C@@H](C)O)C(=O)N[C@@H](C)C(=O)N[C@@H]([C@@H](C)O)C(=O)N1)[C@@H](C)O)C(=O)N1CCC[C@H]1C(=O)N[C@@H](CO)C(=O)N[C@@H](CO)C(=O)N[C@H](C(=O)N[C@@H](CC(N)=O)C(=O)N[C@H](C(=O)NCC(=O)N[C@@H](Cc1c[nH]cn1)C(=O)N[C@@H](CC(N)=O)C(=O)N[C@H](C(=O)N[C@@H](Cc1ccc(O)cc1)C(N)=O)[C@@H](C)O)C(C)C)[C@@H](C)O
notes: also called compound 86

Tests used:
[1] = biological target: T1, human calcitonin receptor; test: SPA competition binding, displacement of 125I-calcitonin from membranes with human calcitonin receptor (Assay VII)
Method: Membranes were prepared in the following way; the cells were rinsed with PBS and incubated with Versene for approximately 5 min before harvesting. The cells were flushed with PBS and the cell-suspension was centrifuged for 5 min at 1000 rpm. Cells were homogenized (Ultrathurrax) in a buffer containing 20 mM Na-HEPES and 10 mM EDTA (pH 7.4) and centrifuged at 20.000 rpm for 15 min. The resulting pellet was resuspended, homogenized and centrifuged (20.000 rpm, 15 min) in a buffer containing 20 mM Na-HEPES and 0.1 mM EDTA (pH 7.4, buffer 2). The resulting pellet was resuspended in buffer 2 and protein concentration was measured (BCA protein Assay, Pierce). The homogenate was kept cold during the whole procedure. The membranes were kept at −80° C. until use. Assay was performed in a 384 well Optiplate (PerkinElmer) in a total volume of 40 ul. Membranes were mixed with SPA beads. Final concentration of membranes 35 ng/μL final and Final concentration of SPA beads was 0.05 mg/well. Test-compounds were dissolved in DMSO and further diluted in assay buffer (50 mM Hepes, pH 7.4, 1 mM CaCl2, 5 mM MgCl₂, 0.1% OA and 0.02% Tween20). […] The final mixture was incubated for 120 min with shaking at 400 rpm at 25° C. prior to centrifugation (1500 rpm, 10 min). Samples were analyzed on TopCounter™ (Packard). The […] was calculated using (one site binding competition analysis) GraphPad Prism5 as a measure of receptor affinity.

[2] = biological target: T2, human calcitonin receptor; test: ratio of hCTR IC50 to hAmylin-R IC50 (reference: human amylin receptor)
Method in brief: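 Membranes (35 ng/μL final) + SPA beads, 50 mM Hepes pH 7.4 buffer with 1 mM CaCl2, 5 mM MgCl₂, 0.1% OA, 0.02% Tween20; 120 min, 25° C, shaking; centrifuged, counted; IC₅₀ by one-site binding competition.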

[3] = biological target: T3, human amylin receptor (amylin 3(a) …); test: SPA competition on BHK cell membranes, 125I-rat amylin as radioligand (Assay V)
Method: The binding assay was performed using scintillation proximity assay (SPA) beads (RPNQ0001) from PerkinElmer and cell membranes from the Amylin 3(a)/CRE-luc cells (as described in Assay (II)) were used. Membranes were prepared in the following way; the cells were rinsed with PBS and incubated with Versene for approximately 5 min before harvesting. The cells were flushed with PBS and the cell-suspension was centrifuged for 5 min at 1000 rpm. Cells were homogenized (ultrathurrax) in a buffer containing 20 mM Na-HEPES and 10 mM EDTA (pH 7.4) and centrifuged at 20.000 rpm for 15 min. The resulting pellet was resuspended, homogenized and centrifuged (20.000 rpm, 15 min) in a buffer containing 20 mM Na-HEPES and 0.1 mM EDTA (pH 7.4, buffer 2). The resulting pellet was resuspended in buffer 2 and protein concentration was measured (BCA protein Assay, Pierce). The homogenate was kept cold during the whole procedure. The membranes were kept at −80° C. until use. The assay was performed in a 384 well Optiplate (PerkinElmer) in a total volume of 40 ul. Membranes were mixed with SPA beads. Final concentration of membranes 35 ng/μL final and SPA beads was 0.05 mg/well. Test-compounds were dissolved in DMSO and further diluted in assay buffer (50 mM Hepes, pH 7.4, 1 mM CaCl2, 5 mM MgCl₂, 0.1% OA and 0.02% Tween20). […] The final mixture was incubated with shaking at 400 rpm for 120 min at 25° C. prior to centrifugation (1500 rpm, 10 min). Samples were analyzed on TopCounter™ (Packard). The IC₅₀ was calculated using (one site binding competition analysis) GraphPad Prism5 as a measure of receptor affinity.

[4] = biological target: T2, human calcitonin receptor; test: SPA competition on BHK cell membranes, 125I-calcitonin as radioligand (Assay VII)
Method in brief: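 BHK hCTR membranes 35 ng/μL + SPA beads 0.05 mg/well; buffer 50 mM Hepes pH 7.4, 1 mM CaCl2, 5 mM MgCl₂, 0.1% OA, 0.02% Tween20. 120 min, 25° C., shaking. Scintillation count; IC50 by one-site binding competition.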

IC50 [1]	Ratio hCT/hAmylin binding [2]	IC50 [3]	IC50 [4]	Binder
112 nM	–	–	–	K([γGlu-γGlu-C20 diacid])CNTATCATQRLA[dD]FLRHSSPNFGAIPSSTNVGSRTY-NH2 (disulfide 2-7 (inferred))
–	23.5	1.04 nM	24.3 nM	B1
–	65.3	1.01 nM	66.3 nM	B2
–	159	0.833 nM	133 nM	B3
